Results as given in the supplement of paper PMC9170038.

Tested on: MS2 coat protein
Assay: apparent KD of MS2 coat protein; designed switch direction (-1 OFF switch, 1 ON switch): -1; higher = weaker reporter binding
How it was run: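 Stalled E. coli RNA polymerase transcribed designed RNA switches on Illumina chips, which were then titrated with SNAP-549-labelled MS2 coat protein, doubling from 0.7 or 1.5 nM to 3 µM. Steps lasted from 0.8–1.5 h at the lowest concentration to 10–20 min at the highest. The apparent KD is each design's median over clusters of curve-fitted normalised fluorescence.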

[1] = input ligand: microRNA oligo, concentration not stated
[2] = Eterna round: R95, input ligand: FMN 200 uM
[3] = Eterna round: R95, input ligand: microRNA oligo, concentration not stated
[4] = Eterna round: R95, input ligand: none

Sequence	apparent KD of MS2 coat protein (input ligand: FMN 200 uM)	apparent KD of MS2 coat protein [1]	apparent KD of MS2 coat protein (input ligand: none)	apparent KD of MS2 coat protein [2]	apparent KD of MS2 coat protein [3]	apparent KD of MS2 coat protein [4]
GCACGAAGUGUAGGAUAUCUGUGCGAUUAGCUCAGAGAAGGACACAUGAGGAUCACCCAUGUGUUCCGCGGAAGCAAUACGUGC [Eli exng1 - 057] (Eterna round: R96, puzzle: Exclusion NG 1)	10.7 nM	9.73 nM	13.3 nM			
CAGACACAUGAGGAUCACCCAUGUGAGGAUAUGCGUACGUUGUCCGUAGGCGACGUGCGCAGAAGGCGCAAAGG [JL-ex1-3.10 Eli mod] (puzzle: Exclusion 1)				65.7 nM	67 nM	79.4 nM
AGAGAAAAUCUAGGAUAUGUGUAUGCCGCGUGCGCAGAAGGAGACAUGAGGAUCACCCAUGUAAAGAGACAGAAGACGACCAAA [Matt's Exclusion] (Eterna round: R96, puzzle: Exclusion NG 1)	55.7 nM	38.7 nM	67.5 nM			
GAAAAUGUGGAGGAUAUCGACUUCGAAAGAAGUCGAGAAGGCCACACAUGAGGAUCACCCAUGUGUUGCUUAUA [Omei Ex6 H7] (Eterna round: R97, puzzle: Exclusion 6)	20.7 nM		16 nM			
UUUGUUUUGCAAGGAUAUGUUUAAUUUUAUUUUCCUUACACAUGAGGAUCACCCAUGUUAUUCUUACAGAAGGUGCGUAAUUUG [Excl-NG2-LRO05] (Eterna round: R96, puzzle: Exclusion NG 2)		171 nM				
GUCAUCAAACAUGGGAUAAACAUGAGGAUCACCCAUGUUAACAAGUUUUUUGCUCGUCUUAUAAUAAGUUUGAUGAC [Antenna 11 - Jieux - Sensor, turn-off variant 1] (Eterna round: R97, puzzle: Sensor, turn-off variant 1)	12.4 nM		13.5 nM			
AGAGUGCUGCGAGGAUAUACAUGAGGAUCACCCAUGUAAACGUGUGAGGCAAAGCCUCACACGAUGUAGAAGGCGCAGUACUCA [Mat - Exclusion NG 2 - Mod of JL - D37] (Eterna round: R96, puzzle: Exclusion NG 2)	19.6 nM	11.7 nM	21.5 nM			
UGUUGGUACGUAGGAUAUCCACCAACAGGUGGAAGGAUAUGGAAACAGAAGGUUCGCCAACAGGCGGAGAAGGACGUGGUAACU [pwkr exNG2 2xF7 2xFMN.24] (Eterna round: R96, puzzle: Exclusion NG 2)	126 nM	212 nM	255 nM			
GCUUGUAGAGGAUAUACAAGGGCCUUAGCGGAUAACACCGCACAUGAGGAUCACCCAUGUAGAAGGCUACCACC [Veorlace] (puzzle: Exclusion 2)					16.6 nM	
CGGAGUUAGGAGGAUAUGACGAACGCACGUCGUUCAGAAGGCCUAACAUGAGGAUCACCCAUGUGCUUAACACG [Eternabot (L2) Solution 59] (Eterna round: R97, puzzle: Exclusion 6)	48.7 nM		35.7 nM			
AAACGGCAGGGAGGAUAUGCUUACCUGGGUCGUCUUCGAACAUGAGGAUCACCCAUGUAGUCGACGCAGAAGGCCCUCAAAGCC [JL ViennaUCT Ontiis mod 2] (Eterna round: R96, puzzle: Exclusion NG 2)	47.4 nM	17.1 nM	21.5 nM			
CAACCGAAUCAGUGAAUGCCGACAUGAGGAUCACCCAUGUGUGAGGAUAUUUUAGUAGAGAACUAAAAGAAGGCACCUGGAAAG [Eternabot solution 20] (Eterna round: R96, puzzle: Exclusion NG 3)	70.2 nM	22.4 nM	39.8 nM			
UUGUUAUAUGUAGGAUAUGCAUGUUAUUAUUAUGCAGAAGGACAUGAGGAUCACCCAUGUGUAUUAUUAUUAUAUAUUAUAUAU [Title] (Eterna round: R96, puzzle: Exclusion NG 1)	21.2 nM	14.1 nM	20.1 nM			
GACUGACAUGAGGAUCACCCAUGUAAGGAUAUAGGGAGCGUCGCUCCGCAACCCGCGCCUAGAAGGUACAAGGU [EX1 C.20] (Eterna round: R97, puzzle: Exclusion 1)	18.2 nM		21.2 nM			
AUCCUGCGAGGAUAUACAUAAUUUUUUUCGUUUUGACUCGAACAUGAGGAUCACCCAUGUAGAAGGUGCUUCAC [JR_Ex2_Sub027] (Eterna round: R97, puzzle: Exclusion 2)	122 nM		94.8 nM			
AUCUUGUCAGGAUAUCUGACAAGUGACGAAAGUCACAGUUCAGAGAAGGUACAUGAGGAUCACCCAUGUAGAAC [Ex4-3: 40] (puzzle: Exclusion 4)					19.1 nM	
UAUUAACAAGCUAGAUCCCACAUGAGGAUCACCCAUGUGCUCGUCUUAUAAGGUACUGUGACGAAAGUCACGGUACC [Sensor 3, v1 - 78] (puzzle: Sensor v3, turn-off variant 1)				37.8 nM	188 nM	32.3 nM

Sequence	apparent KD of MS2 coat protein (input ligand: FMN 200 uM)	apparent KD of MS2 coat protein [1]	apparent KD of MS2 coat protein (input ligand: none)	apparent KD of MS2 coat protein [2]	apparent KD of MS2 coat protein [3]	apparent KD of MS2 coat protein [4]
GCUGGUCGAGGAUAUAUAUGACGUGCUUCGGCACGAAGAUCACAUGAGGAUCACCCAUGUAGAAGGCGACCAGC [E2/8-A1] (Eterna round: R97, puzzle: Exclusion 2)	1480 nM		156 nM			
GCCAGGUGAUUCGGCCAUGACAUGAGGAUCACCCAUGUAACAAUCUAGCAAGCAAACAAGGCCGUCGUGUAGGUAUU [Rigeusarla] (Eterna round: R96, puzzle: Sensor v2, turn-off variant)	78 nM	61.1 nM	76.7 nM			
UUAUCCCAUGUGAGGAUAUUAUUUUAAAGAUGCAAUGAGAAGGUACAUGAGGAUCACCCAUGUCCGCGAAAUAU [Eternabot (L2) Solution 57] (Eterna round: R97, puzzle: Brourd's mod of Exclusion 4)	15.4 nM		15.4 nM			
CAGCGUGAAGGAUAUACAUGAGGAUCACCCAUGUGCAACUCUCCAACUCGGACUCCCUGUAGAAGGUCGGCUUU [Eternabot (L2) Solution 88] (Eterna round: R97, puzzle: Exclusion 3)	26.9 nM		28 nM			
UUAUACGUUGAGGAUAUGCGACUUUGUAUAGUUGUAGAAGGCGAUACAUGAGGAUCACCCAUGUUUAUGGGCAU [LRO-Ex6-10] (puzzle: Exclusion 6)					186 nM	
AGCGCCAUGCUCGUCUUACACAUGAGGAUCACCCAUGUUGGGUCUCAGAUGCGGUAAUAGCCCGUUGAAUCUAGUGG [Eternabot (L1) Solution 38] (Eterna round: R97, puzzle: Sensor, turn-off variant 1)	182 nM		191 nM			
GAGCUAUGAGGAUAUGCAUAUAUACGGUUUCGUGUGGUACUACAUGAGGAUCACCCAUGUAGAAGGCGUGGCUG [JL-ex2-2.05 mat747 mod] (puzzle: Exclusion 2)					14.2 nM	
UACAUGAGGAUCACCCAUGUUUUGUCGUGUAUGGUAUUUAUCUAGGAUAUCAAGUUAGUUAUUUAUGAGAAGGAGAAUAUUAAU [JMF's solution 29] (Eterna round: R96, puzzle: Exclusion NG 3)	42.5 nM	30.7 nM	39.4 nM			
CAGUACUGAGGAUAUACAUGAGGAUCACCCAUGUGCCUCAGGUAGGAUACUACCAUUAGUAGAAGGCAGUACUG [Fiskers Ex 3 828 mod 18] (puzzle: Exclusion 3)					128 nM	
AAAUCGGAGGAGGAUAUGGUACAGGAAACGGUGCCAGAAGGUUUCACAUGAGGAUCACCCAUGUCAAAUAGCGA [EX6 #59] (Eterna round: R97, puzzle: Exclusion 6)	21.3 nM		20.3 nM			
AGAAACUCAAGAGGAUAUCACAUGAGGAUCACCCAUGUAUAGCGCGCUAUGCUAGUCCUCGUAUUUGAGAAGGUUUGAUAAAUG [Mat - Exclusion NG 2 - Mod of JL - D78] (Eterna round: R96, puzzle: Exclusion NG 2)	16.2 nM	14.2 nM	16.9 nM			
CUUAAUUGUCACAUGGGUGACAUGAGGAUCACCCAUGUCACAAGCUUUUUGCUCGUCUUAUAAUUAACCCAUGUGAC [Stov1/12-A3] (Eterna round: R97, puzzle: Sensor, turn-off variant 1)	13.7 nM		13.3 nM			
UUGAAGUAAGGAUAUACAUGAGGAUCACCCAUGUAAAGGAAAGUAAUGGGAGUAGGAAGUAGAAGGUACGAGGA [JR_Exclu3_Sub062] (puzzle: Exclusion 3)				49 nM	66.6 nM	134 nM
UGUUGUUCAGGAUAUGAUGUAUAAUACAUGAGGAUCACCCAUGUAGAUCCUGAAUUAACAUCAGAAGGGAAUAUUU [JL-ex5-4.59 Brourd mod] (Eterna round: R97, puzzle: Exclusion 5)	19.8 nM		17.2 nM			
ACAUGAGGAUCACCCAUGUGCACGUAAUGGCUCAUGUAGAGUCAGGAUAUGCGUGGCGAACUCGCGCAGAAGGGACAAGACUGG [Deportation 20 - Jieux - Exclusion NG 3] (Eterna round: R96, puzzle: Exclusion NG 3)	23.5 nM	25.6 nM	34.6 nM			
CCGGCGUCAGGAUAUCGUAGCAGGACAUUCAGUCGCGGCUAUGAGAAGGGACAUGAGGAUCACCCAUGUCCUCA [Eternabot (Original) Solution 22] (Eterna round: R97, puzzle: Exclusion 4)	29.5 nM		21.5 nM			
